The values that follow are results of earlier work, collected in paper PMC4584479.

The target in data set [1] is IL-15Rβ/γc (Homo sapiens) (UniProt P14784).
The target is the same in data set [2]. The source holds these as a separate data set.

Like-named read-outs stand apart in the source and are kept apart here.

UniProt P14784, sequence (P14784 27-240, chain 1 of 2): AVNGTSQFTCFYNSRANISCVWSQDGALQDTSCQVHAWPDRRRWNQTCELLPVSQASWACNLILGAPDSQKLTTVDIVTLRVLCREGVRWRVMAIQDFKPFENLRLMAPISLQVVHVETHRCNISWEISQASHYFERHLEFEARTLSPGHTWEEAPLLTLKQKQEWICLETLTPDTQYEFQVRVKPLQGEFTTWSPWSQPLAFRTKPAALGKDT
UniProt P14784, sequence (P31785 23-262, chain 2 of 2, further chain): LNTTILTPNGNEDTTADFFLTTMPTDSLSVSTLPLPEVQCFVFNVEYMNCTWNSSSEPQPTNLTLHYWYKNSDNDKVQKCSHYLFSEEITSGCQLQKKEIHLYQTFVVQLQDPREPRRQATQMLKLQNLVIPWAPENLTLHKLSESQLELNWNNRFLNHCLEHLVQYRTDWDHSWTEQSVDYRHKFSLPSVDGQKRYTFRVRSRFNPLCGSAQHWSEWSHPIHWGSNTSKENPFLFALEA

Usually Kd stands for the constant that tells how readily two partners part at equilibrium. As for IL-15 (from UniProt P40933), in data set [1], the Kd was 13.5 nM.
As to “IL-15/IL-15Rα-sushi fusion protein (IL-15 hyperagonist) sushi domain of IL-15Rα fused to IL-15 (from UniProt P40933)”, in data set [2], the Kd is 0.78 nM.
